Measurements taken from the DeepSol protein solubility set.

Assay: soluble on expression in E. coli; label from the status in PepcDB or PDB records

| Sequence | soluble on expression in E. coli |
| --- | --- |
| MAHHHHHHMANSKFSYVKLFEEERKILLNCYFIVRIDGCDFKHFVKAHNYNKPNDIKGLNLMNECALDILKKFDDIDLCYGHSDEYSFLFNKSTKLWNRRYDKILTNVVSYFTSCFLYKWKNYFQKEMLYAPSFDARIVVYPNEKEIKDYFSWRQVDCHINTQYNECFWNLIRQANYTNDEAHKFLLTTQTKDKNELLFSRFNINYNNLPEIFRRGTIIIRNKTFQKKNEALGTIYNNDTANNIDDNNNNNNNNNNTFNDNNDIENFEKLKKECLPKFIISHENLVSEKFWDKYDYIFKKKKDLEKK | not soluble |
| MGSDKIHHHHHHMSNTQKVPVTILTGFLGSGKTTLLNRILSEEHGKKIAVIENEYGEVGIDQGLVINADEEVFEMSNGCICCTVRGDLIRVLGNLMKRRDKFDYVLVETTGLADPGPVAQTFFMDDEIREEFSLDGIVTLVDAAHIEQQLGRSDESSEQVAFADVLVLNKTDLVSDESLDNLESRLRDMNRMARVIRSKQADVSIDTVLNLSAFDLDQVLQRRPTFLEPEYPFEWTGVFSLEKGRYELTLEEGPDPTMSLVQLLDQGKDETALNTGAESCVRLYAEQEQLMNPGDLVPVGKHVNLQLQSEGTKSFFIDVDKARDIGLFTQHTAEEFNMKLTKVNTPSTDEIDNDQNISTISPIAERVWVAEHEHDDEVGSFAIEREGDVDPEKLNRWLSRLLSEKGVDIFRTKGFISYAGESKRIVFQGVHMLFTAQPDKEWGNEPRRNQLVFIGRNLDEAEMIKEFDKCLV | not soluble |
| GMRNELPPENAYRILESGPIVLVSTRGADGRANLMTMGFHMMMQHEPPLVGAIIGPWDYSHQALSETGECVLAVPTVDLAETVVDIGNCSGDALDKFGHFGLTPVPAQTVDAPLVRQCWANLECRVVDDGWARRYNLWVLEVQRIWIDTARKETRLIHHQGDGRFSVDGDTLDLGERMTKWRHLMG | soluble |
| MSLDRVDRDILRILHAKGRLPVVELAKLVNLTTSPCSERVKRLEKEGYIRGYHADLDPGKLGLDVQVFIHIRLDQSSFSIFERFAHAVADIPEIEACYSLSGDFDTMIKVRVKDMKAYQAFMSGKLGSLPGVIQTRSEFVIEEHKTSFGINPELIYSLPS | not soluble |
| MAKNFAEQIVESLENQGVKRIYGLVGDSLNPIVDAVRTSNIEWIHVRNEETAAFAAEAESLLTGELAVCAASCGPGNTHLVQGLYDANRNGAKVLAIASHIPSRQIGSHFFQETHPEALFAECSGYCEMANSALQGEVILHHAIQSTMAGKGVSVLVLPGDVTMQDVEDDTFTGSRISNARPIMYPDPAEAADLVKAINEAKTVTLFCGAGVRYARKEVLELAEKIKAPIGHALGGKMYIQYDNPFDVGMSGLLGYGACHDASNDADLLILLGTDFPYNDFLPRKNVAQIDIDGSHIGRRTRISHPVVGDVAATISNILPHIEEKTDRSFLDRMLKKHHRKLNDVIEAYTSGVEKHTPIHPEFVANIIDEIAADDAVFTIDTGMCNVWGARYITPNGKREMIGSFRHGTMANALPQAIGASAANPRRQVVTFSGDGGLGMLMGELLTVKLHNLPIKTVVFNNSSLGMVKLEMLVQGMPEHETDHEHVDFDAIAAAVGIEHIKITDPAKARQQLQAAFDYDGPVLIDIITDPNALSIPPNITMDMLMGFSRAATRTVFGGGVGHMVDMAKSNLRNIPKP | not soluble |
| MKSCRSCKENPEVQRKRAEKPWRRAPKAKSEVEKHGIGPPDSDSGEEISFPWYNVTGKMLVVGMHVEIKRSDGRIHGAVIAEVKSNGRFMVEWYEKGETKGKESSLEELLTLNPSLQAPKPTPPPQPPQKTLQASTAVNRQNGIHAQSMILDDEDTFLLDHINMIPAKGASANKRPTGAFTQHVPVRMAPPSEKPLPTRRAPSPKEDAAPAPKSTRTTAAFKPDLDSTAITVPKHTARRTVVVAPAPAPVPAPPIANMTSQRAPSPVARVPSPKNVPRSYPQQDVQPSNGNFAFAEMIRNYRAQIDYRPLSMFDGVNENRISVCVRKRPLNKKELTKAEVDVITIPSRDITILHQPQTRVDLTKYLDNQKFRFDYSFDEYANNELVYRFTAAPLVKTVFDNGTATCFAYGQTGSGKTHTMGGDFSGKKQNASMGIYALTARDVFRMLEQPQYRRKDLSVHCAFFEIYGTKTYDLLNDKAELRVLEDKMQKVQVVGLKEEQAHNEQDVLELINKGTLVRTAGTTSANANSSRSHAIFQIILRQGKKVWGKFSLIDLAGNERGQDTRECDRDTRKEGANINTSLLALKECIRGMARNSSHVPFRQSKLTMVLRDSFIGEKSRTVMISMISPGISSSDHTLNTLRYADRVKEMGTDGSGEATPIRDEELFLPPSADKSDEEYDEMVEKQEHRRVAVDHVRNLKDMSEKIIRETTIVLSNEPSAAQKAECLAKLDQLAQIVSNTRVAVENV | soluble |
| MSLQFIGAGLGRTGTLSLKLALERLGVGRCYHAMELAANLRQDLPQWESAIDGRPDWDRIFAGYAATTDYPGCCFWMELAARYPHAKVILTVRDPDAWFDSVSATIFSGSNNLPSLFGSRGQRLSQFLRRDLGARLGERAFMTDYFRRWNQAVITHIPAPRLLVLDTDTESSWERLCAFLALPVPAFPYPRVHMRGASVPQRPLPTEPALIEQRMRTYLDRLAEEAFAPPTAPLEHHHHHH | soluble |
| MAHHHHHHMQNSVGDVINLISKSEIRYEGKLHSINTEENTVSLSNVRIYGTEGRKGGGVEEVPPTEQLFEFIVFRGSDIKDLTVFRDSSSPQARDPAIVEVHAPARGRGGRAAAAAPAASATAASSAATRGSRSFYDEAQPYSRGGGGGRRGGYGAGRYNNNNGGGSNNSNSNRNHRGGYGGRGGSGNYRRNYRDYHTGQDFKPADIGATEKFEGDFDFAKCREEFEKKKSEFEKAKEDAKSHAKAYDKSSFFDTISCDQKEKNNMNRAEMRKADTETFGPEMVSSMRGFRRGRGGRGRYQQR | not soluble |
| ATKQAIEKDPWLSPEQKKAQKEKAKARLDEGLKALKAADSLEILKVTEEAFVDKEKNPDSIPNQHKAGTADQARKQALDSL | not soluble |
| MAHHHHHHMGTLEAQTQGPGSMNLDDIGSGSNAPEEVNVVIEVSQDSHPVKYEFDEKNGALWVDRFLPTAMYYPCNYGFIPNTIAGDGDPVDVLVLARFPVMPGAVICVRPVGVLMMNDEKGEDAKVLAVPATKVDQYYGNIVNYSDLPSSFLDSISHFFSFYKKLEKDKFVSVGCWQDAASAKELIRSAIIAAKKGEN | soluble |
| MGSDKIHHHHHHMKLIWLGHGGFRLETGETTLLIDPWLTGNPMLEDSQHDAATQGATHILLTHAHFDHVADVLELAKHLSVPIVGQYDLMGYWGETEGVQTVGFNKGGTVTVGDTRVSMVPASHSNTFSTRDGLRTAGSEVGYMIRAEGKTLYVSGDTDIMADMDWMGDYYKPEIGILSAGGHFTMDMKAAAYAAQRYFAFKTVIPCHYRTFPLLEQSAQDLIDGLPGVNVIEPQIMKDIEL | not soluble |
| HHHHHGSIMKVLRKGDRGDEVCQLQTLLNLCGYDVGKPDGIFGNNTFNQVVKFQKDNCLDSDGIVGKNTWAELFSKYSPPIPYKTIPMPTANKSRAAATPVMNAVENATGVRSQLLLTFASIESAFDYEIKAKTSSATGWFQFLTGTWKTMIENYGMKYGVLTDPTGALRKDPRISALMGAELIKENMNILRPVLKREPTDTDLYLAHFFGPGAARRFLTTGQNELAATHFPKEAQANPSIFYNKDGSPKTIQEVYNLMDGKVAAHRK | soluble |
| MPDGGFKVEVEALRRYRDTLEDFKSQADTFSDLVDRADVGDESWGLVGLATKSSYTEALGQLRDLLDRMKQGLTNTGEKFTKAAELYASNDDQGAIQLGNYEIEVDKVDEVRPAGA | not soluble |
| MGSDKIHHHHHHMSMSVQQIDWDLALIQKYNYSGPRYTSYPTALEFSEDFGEQAFLQAVARYPERPLSLYVHIPFCHKLCYFCGCNKIVTRQQHKADQYLDALEQEIVHRAPLFAGRHVSQLHWGGGTPTYLNKAQISRLMKLLRENFQFNADAEISIEVDPREIELDVLDHLRAEGFNRLSMGVQDFNKEVQRLVNREQDEEFIFALLNHAREIGFTSTNIDLIYGLPKQTPESFAFTLKRVAELNPDRLSVFNYAHLPTIFAAQRKIKDADLPSPQQKLDILQETIAFLTQSGYQFIGMDHFARPDDELAVAQREGVLHRNFQGYTTQGDTDLLGMGVSAISMIGDCYAQNQKELKQYYQQVDEQGNALWRGIALTRDDCIRRDVIKSLICNFRLDYAPIEKQWDLHFADYFAEDLKLLAPLAKDGLVDVDEKGIQVTAKGRLLIRNICMCFDTYLRQKARMQQFSRVI | not soluble |
| SLKKEISILNIPFYNTTQAGFVEELYMAAKNGERRFVVTANPEIVMHARTDKEFEAILGQADYIVPDGIGIIMASEKLGEPLKERVTGYDTMVGLLNKPLSCYFLGAKPEISEVVEAKVREKFPQAVVCGVHHGYFDVLESEAIAKEILVAQPDVIFVALGSPAQEKWILSQIANFTKGIFIGVGGSFDVLTDSVKRAPKIWIKLRLEWVYRLLSNPSRWRRFFAIPQFMLVIRKERKRLKKG | soluble |
| MGSDKIHHHHHHMIEQIGSVEEADAGKVLESLVLSFSPSLLPLRQRWRNNGLSADFLGDYVTTFFPGAGDDTTTADRQKHAKAAVSYIANELLENAMKYSAAESTRPITITLSLEAERITFIETNPVSRARAATFHSYATELIASDPMEMYLRILEEERSDDDGSGLGLITMINDYNASLSWRFEDPGEDTVMVSTIVQIPV | not soluble |
| MKTFIKGLVLSAVVASSQVYAEQTLNVYAWGGYLPEKSLKAFEQQEGVTINYSTFENNESMYTKLKLLKGTGYDVVFASAYFIEKMGREGLLAEIDHNQIPNMKDAMPTVLGLAHDPQNKFSLPYIWGITGLYYNSSTLPNGITKWADLWDKQYEQQVMLIDDIRDVFGMALKLNGFSINTKNEEEIKKAYESLVALKKNVLLYNSDAPHVPYVSGEATLGMQWNGNAYQGQVEMPELKFVMPEEGAVLWMDNFTIPSGSKNIPLAHKFINFMYQPENQAEIVQSLGYASATKGGRALLPAELRDNPTIFPSDEDMKKGEFINDVGPETLAIYEKYWQRLRNQ | not soluble |
| MGSDKIHHHHHHMKISPLCPSCLLGRVYYEAKLVTDDEDLISQCVDESLKILAENYSSAPINAHLATRIHRRVYEILGVEDPYAEVKARANEVARQVLPLAKEIVEGSDDPFKTAVIVSIVGNNFDYGVQGHKVVEEEFRDFLKRKVQEGLKINDTERIKELSSGKVVYLTDNAGEIFFDTLLMKEIKRRCEKLTAVVRGRPIISDATIEDARLARVDKIADELLTNGKGAIGIIMDELPDETRKALEEADLIVAKGMANYECLSDGSLKPIAFLLTAKCEPVARDIGVNVGDMVAKVVE | not soluble |
| AIADAFEHENRYVHAVYEAIGDHFSATRYRTWPRVQAFLEQLAHEALVLDSGAGNGKYALPVLRQHGYYIAADRCRRLLLRARWQSDALEAQETALLPVECVQADCLFLPFRSGVFDVALSIAVIHHVATARRRVGAVVELGRVLRPTGHALVYVWALRAIPLKLRSRAQSTMDGYLLPWHHKRSTGADALPQKKSDSPSQTYFRFYHLFEEDELRMLVEEANAVSKEGAATTWTLRITGETFDHQNYVVEFQRQNIHALLEDAADNILHPSI | soluble |
| MQAINPNWNVPKNIHAFTTTREGGVSLAPYLSFNLGDHVGDNKSAVKTNRTLLVEKFGLPQTPIFLTQTHSTRVIQLPYSGQNLEADAVYTNVPNQVCVVMTADCLPVLFTTTSGNEVAATHAGWRGLCDGVLEETVKYFQAKPEDIIAWFGPAIGPKAFQVGIDVVEKFVVVDEKAKLAFQPDAIEEGKYLSNLYQIATQRLNNLGITQIYGGNHCTFNEKEKFFSYRRDNQTGRMASVIWFE | not soluble |
| MRRAGYLHLYGLNLVFDRVGKGPPVLLVAEEASRWPEALPEGYAFYLLDLPGYGRTEGPRMAPEELAHFVAGFAVMMNLGAPWVLLRGLGLALGPHLEALGLRALPAEGVEVAEVLSSKLSYGNIDLGGNL | soluble |
